This assay has as its target T1, CD58 (human, UniProt P19256 29-250).
T1 construct: whole, on cells; also called platelet marker CD58
T1 sequence: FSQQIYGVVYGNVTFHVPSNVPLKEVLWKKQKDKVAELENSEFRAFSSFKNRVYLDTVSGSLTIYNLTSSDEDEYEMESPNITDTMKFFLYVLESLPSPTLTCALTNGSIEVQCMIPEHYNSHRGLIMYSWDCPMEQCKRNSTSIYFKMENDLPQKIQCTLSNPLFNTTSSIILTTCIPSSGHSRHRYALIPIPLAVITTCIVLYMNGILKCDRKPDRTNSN
Kind of assay: flow cytometry, FITC sPIF-1(15) on human blood cells; no binding to platelets.

Primed or numbered codes have the meaning given here. No end group written: not given here. FITC′ = fluorescein label, attached via β-alanine spacer; βAla = NCCC(=O)O

B1: FITC labeled sPIF-1(15) (peptide)
peptide: {FITC′-βAla}-MVRIKPGSANKPSDD
notes: also called FITC sPIF-1(15); FITC sPIF-1
On to B1, for which the binding result is “no binding”.

Source of the values: patent publication US20080003178A1 (BIOINCEPT, published 2008).
